Measurements from USRE41461E1, “Purification, composition and specificity of Heparinase I, II, and III from Flavobacterium heparinum” (Massachusetts Institute of Technology, priority 1992, dated 2010).
Like-named read-outs stand apart in the source and are kept apart here.

B1: Heparin lyase II: heparin lyase II (heparinase II, no EC number) purified to homogeneity from Flavobacterium heparinum (protein, UniProt C6XZB6 26-772, looked up)
Heparin and heparin-sulfate …: QTKADVVWKDVDGVSMPIPPKTHPRLYLREQQVPDLKNRMNDPKLKKVWADMIKMQEDWKPADIPEVKDFRFYFNQKGLTVRVELMALNYLMTKDPKVGREAITSIIDTLETATFKPAGDISRGIGLFMVTGAIVYDWCYDQLKPEEKTRFVKAFVRLAKMLECGYPPVKDKSIVGHASEWMIMRDLLSVGIAIYDEFPEMYNLAAGRFFKEHLVARNWFYPSHNYHQGMSYLNVRFTNDLFALWILDRMGAGNVFNPGQQFILYDAIYKRRPDGQILAGGDVDYSRKKPKYYTMPALLAGSYYKDEYLNYEFLKDPNVEPHCKLFEFLWRDTQLGSRKPDDLPLSRYSGSPFGWMIARTGWGPESVIAEMKVNEYSFLNHQHQDAGAFQIYYKGPLAIDAGSYTGSSGGYNSPHNKNFFKRTIAHNSLLIYDPKETFSSSGYGGSDHTDFAANDGGQRLPGKGWIAPRDLKEMLAGDFRTGKILAQGFGPDNQTPDYTYLKGDITAAYSAKVKEVKRSFLFLNLKDAKVPAAMIVFDKVVASNPDFKKFWLLHSIEQPEIKGNQITIKRTKNGDSGMLVNTALLPDAANSNITSIGGKGKDFWVFGTNYTNDPKPGTDEALERGEWRVEITPKKAAAEDYYLNVIQIADNTQQKLHEVKRIDGDKVVGVQLADRIVTFSKTSETVDRPFGFSVVGKGTFKFVMTDLLPGTWQVLKDGKILYPALSAKGDDGALYFEGTEGTYRFLR
B2: Heparin lyase III: heparin lyase III (heparitinase EC 4.2.2.8) purified to homogeneity from Flavobacterium heparinum (protein, UniProt Q59289 25-659, looked up)
Heparin-sulfate lyase: QSSSITRKDFDHINLEYSGLEKVNKAVAAGNYDDAAKALLAYYREKSKAREPDFSNAEKPADIRQPIDKVTREMADKALVHQFQPHKGYGYFDYGKDINWQMWPVKDNEVRWQLHRVKWWQAMALVYHATGDEKYAREWVYQYSDWARKNPLGLSQDNDKFVWRPLEVSDRVQSLPPTFSLFVNSPAFTPAFLMEFLNSYHQQADYLSTHYAEQGNHRLFEAQRNLFAGVSFPEFKDSPRWRQTGISVLNTEIKKQVYADGMQFELSPIYHVAAIDIFLKAYGSAKRVNLEKEFPQSYVQTVENMIMALISISLPDYNTPMFGDSWITDKNFRMAQFASWARVFPANQAIKYFATDGKQGKAPNFLSKALSNAGFYTFRSGWDKNATVMVLKASPPGEFHAQPDNGTFELFIKGRNFTPDAGVFVYSGDEAIMKLRNWYRQTRIHSTLTLDNQNMVITKARQNKWETGNNLDVLTYTNPSYPNLDHQRSVLFINKKYFLVIDRAIGEATGNLGVHWQLKEDSNPVFDKTKNRVYTTYRDGNNLMIQSLNADRTSLNEEEGKVSYVYNKELKRPAFVFEKPKKNAGTQNFVSIVYPYDGQKAPEISIRENKGNDFEKGKLNLTLTINGKQQLVLVP

Legend:
[1] = Heparin lyase activity assay (change of absorbance at 232 nm), heparin as substrate; format: biochemical, porcine
Procedure: The spectrophotometer was adjusted to the optimum temperature of the particular lyase being assayed. […] A measured quantity of lyase was added, bringing the final volume to 400 μl and the cuvette was gently mixed. The microcuvette was then immediately returned to the spectrophotometer and the change of absorbance at 232 nm was measured at 10 seconds intervals over 3 min. […] The specific activity was then calculated by dividing the micromoles of product produced per minute by the milligrams of protein in the cuvette. […] G., and Linhardt, R. J. (1989) Carbohydr. Res. 190, 219-233. Protein concentration was measured by the Bradford assay, Bradford, M. M. (1976) Anal. Biochem. 72, 248-254, based on a bovine serum albumin standard curve. […] The activities of each lyase (I acting on heparin, II acting on both heparin and heparan sulfate, and III acting on heparan sulfate) were then determined at different pH values. The buffer giving optimum activity for each heparin lyase was selected by testing buffers with buffering capacity near the pH optima calculated in the previous experiments. These buffers were: Tris-HCl, sodium phosphate, HEPES, MOPS, TES, and BTP-CHl. […] The heparin lyase assay solutions were made by diluting enzyme in 50 mM sodium phosphate buffer adjusted to the appropriate pH as previously described. Heparin lyase activity was determined in each buffer. Activity was assayed both immediately after addition to each buffer and following incubation for 24 h at 37° C. The salt concentration for optimum activity was investigated. Sodium chloride, potassium chloride, and sodium and potassium acetate were used to differentiate between ionic strength and specific ion affects. […] The temperature was adjusted in a temperature-regulated spectrophotometer and equilibrated for 10 min before the assay was started. Michaelis-Menten constants were determined using the optimized conditions. The final absorbance value for total depolymerization was divided by 20 to find a value that represented 5% reaction completion. The purified lyase preparations were diluted so that 5% of total depolymerization would be reached only at the end of a 3-min assay. The reaction velocities at specific molar concentrations for each lyase and their substrates were used for kinetic analysis using EZ-FIT hyperbolic curve-fitting program of […]. (1988) Anal. Biochem. 174, 437-447). Substrate solutions were prepared from 50 mg/ml heparin and 40 mg/ml for heparan sulfate stock solutions. […] The amount of purified lyase used was sufficient for complete depolymerization of heparin or heparan sulfate substrates within 30 min. The initial rate of depolymerization of each polysaccharide was measured, the reaction was then continued for 24 h, and the final level of polysaccharide depolymerization was assessed by measuring the final absorbance at 232 nm and expressed as percent activity.

[2] = Isoelectric focusing on agarose gel; format: physicochemical; conditions: agarose IEF
Procedure: IEF gel electrophoresis was run on pre-cast agarose gels (85×100 mm). Two electrode wicks were wetted with 1M phosphoric acid (anolyte) and 1M sodium hydroxide (catholyte). Electrophoresis was at 5 watts for 5 min, then at 10 watts for 1 h until the voltage was constant at 1200 V. The gel was immediately fixed in 15% aqueous trichloroacetic acid, blotted and rinsed with water, dried overnight, stained by using Coomassie G-250, and destained.

[3] = Activity remaining after incubation in buffers for 24 h at 37° C.; format: physicochemical
Procedure: The buffer giving optimum activity for each heparin lyase was selected by testing buffers with buffering capacity near the pH optima calculated in the previous experiments. These buffers were: Tris-HCl, sodium phosphate, HEPES, MOPS, TES, and BTP-CHl. Each buffer was prepared at 50 mM, and its pH was adjusted with hydrochloric acid or sodium hydroxide to 6.9 for heparin lyase II acting on heparin, 7.15 for heparin lyase I, 7.3 for heparin lyase II acting on heparan sulfate, and 7.6 for heparin lyase III. The heparin lyase assay solutions were made by diluting enzyme in 50 mM sodium phosphate buffer adjusted to the appropriate pH as previously described. Heparin lyase activity was determined in each buffer. Activity was assayed both immediately after addition to each buffer and following incubation for 24 h at 37° C.

[4] = Rice and Lindhardt (1989), cited from earlier work

Row | Molecule | Unit/mg (specific activity) ([1]; final GPC-HPLC purification step, acting on heparin) [Unit/mg] | average number of sites acted at in the heparin polymer ([1]; final level of depolymerization, 24 h) [sites] | initial activity in six buffers (Tris-HCl, sodium phosphate, HEPES, MOPS, TES, BTP-HCl) ([1]; heparin, 50 mM buffer at optimum pH) | temperature for maximum activity ([1]; heparin, 50 mM sodium phosphate at optimum pH, 15-55° C.) [°C] | Km ([1]; heparin, I: 30° C., pH 7.15, 100 mM sodium chloride, II: 35° C., pH 7.3, value ± standard error, read-out: Km(app)) [µM] | optimum temperature (summary) ([1]; heparin, activity greater at higher temperatures but stability reduced) [°C] | Vmax ([1]; heparin, optimized conditions, value ± standard error) [μmol/min mg protein] | pH optimum for activity ([1]; on heparin) | specific activity ([1]; purified lyase, toward heparin) [units/mg] | Km (Michelis-Menton constant, summary) ([1]; with heparin) | V(max) (summary) ([1]; with heparin) | Km ([1]; with heparin, read-out: Km (Michelis-Menton constant, summary)) [µM] | pI (isoelectric point) [2] | pI (isoelectric point) ([2]; listed as heparin lyase II) | retention of activity after incubation ([3]; MOPS, TES, and HEPES, toward both heparin and heparan sulfate) | pI (isoelectric point) ([2]; listed as heparin lyase III) | retention of activity after incubation ([3]; MOPS and HEPES) | Vmax (reported) [4] [µmol/min] | Km ([4]; read-out: apparent Km (reported)) [µM]
1 | B1 | 19 | 14 | remarkably similar in all six buffers | 40 | 57.7 ± 6.56 | 35 | 16.7 ± 0.555 | 7.3 | 19 | 0,129 mg/ml | 15.04 | 9.23 | around 8.9 | 8.9-9.1 | 30-70% |  |  |  | 
2 | B2 |  |  |  |  |  |  |  |  |  |  |  |  | ~9.2 |  |  | 9.9-10.1 | 15-30% | 0.00357 | 5.7
